Source: publication doi:10.1101/2022.11.08.515567

How the values were obtained:
Test in all cases: SEC
[1] = biological target: S2P-1208.H8 (ancestral Hu-1) (SARS CoV-2 (ancestral Hu-1 isolate)) (UniProt P0DTC2)
[2] = biological target: S2P.OmiBA1-1208.H8 (SARS CoV-2 (Omicron BA.1))
[3] = biological target: S2P.OmiBA1-FHA (SARS CoV-2 (Omicron BA.1) | bacteriophage T4)
[4] = biological target: S2P.OmiBA.4/5-1208.H8 (SARS CoV-2 (Omicron BA.4/5))

S2P-1208.H8 (ancestral Hu-1) (from UniProt P0DTC2 16-1208) (domain or fragment)
stoichiometry N [1]: 2

S2P.OmiBA1-1208.H8 (domain or fragment)
percent dissociated to dimer after a freeze-thaw cycle [2]: 15% | stoichiometry N [2]: 3

S2P.OmiBA1-FHA (domain or fragment)
stoichiometry N [3]: 3

S2P.OmiBA.4/5-1208.H8 (domain or fragment)
stoichiometry N [4]: 3
